Source: patent publication US20240075114A1

Biological target: PF-4 in cynomolgus monkey plasma (cynomolgus monkey)
Assay: aligned sandwich ELISA, cyno plasma

Substance: monoclonal anti-HPF4 antibody (Abcam cat. no.: ab49735)
- AUC Ratio vs anti-HPF4: 1
- anti-HPF4 AUC mean: 2.9
